Measured values taken from patent US20190055314A1.

Legend:
[1] = target: full-length monkey CD137 on the cell surface (cynomolgus monkey); assay: flow cytometry, PMA/ionomycin-activated monkey T cells, antibody 100 nM
[2] = target: OX40 overexpressed on HEK293F cells (UniProt P43489); assay: flow cytometry, HEK293F cells expressing the receptor, antibody 100 nM [Cont.]
[3] = target: full-length human CD137 on the cell surface (human) (UniProt Q07011); assay: as above
[4] = target: CD40 overexpressed on HEK293F cells (UniProt P25942); assay: as above
Sequence of CD40 overexpressed on HEK293F cells (P25942 21-277 limits assumed): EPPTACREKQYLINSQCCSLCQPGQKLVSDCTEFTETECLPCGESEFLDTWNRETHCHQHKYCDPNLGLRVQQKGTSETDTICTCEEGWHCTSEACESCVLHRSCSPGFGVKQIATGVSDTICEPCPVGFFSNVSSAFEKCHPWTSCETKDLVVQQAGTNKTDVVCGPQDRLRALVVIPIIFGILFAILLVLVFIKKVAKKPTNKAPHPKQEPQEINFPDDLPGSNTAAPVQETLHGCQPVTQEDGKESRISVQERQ

[5] = target: CD27 overexpressed on HEK293F cells (UniProt P26842); assay: as above
Sequence of CD27 overexpressed on HEK293F cells (P26842 20-260 limits assumed): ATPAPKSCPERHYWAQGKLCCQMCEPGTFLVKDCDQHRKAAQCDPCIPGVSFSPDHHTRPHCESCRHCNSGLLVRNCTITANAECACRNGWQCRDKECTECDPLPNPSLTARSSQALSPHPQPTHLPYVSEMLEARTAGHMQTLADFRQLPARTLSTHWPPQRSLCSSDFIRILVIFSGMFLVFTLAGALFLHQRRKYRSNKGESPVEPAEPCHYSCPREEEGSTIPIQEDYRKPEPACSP

[6] = target: GITR overexpressed on HEK293F cells (UniProt Q9Y5U5); assay: as above
Sequence of GITR overexpressed on HEK293F cells (Q9Y5U5 26-241 limits assumed): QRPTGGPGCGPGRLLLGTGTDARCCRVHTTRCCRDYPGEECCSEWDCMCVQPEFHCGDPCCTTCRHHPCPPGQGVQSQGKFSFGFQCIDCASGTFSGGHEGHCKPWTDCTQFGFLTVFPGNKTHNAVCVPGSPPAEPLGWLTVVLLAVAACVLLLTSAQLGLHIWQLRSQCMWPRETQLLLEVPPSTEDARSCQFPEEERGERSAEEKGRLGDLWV

CD95 = assay: as above
Sequence of CD95 (chain, as listed by the source limits assumed): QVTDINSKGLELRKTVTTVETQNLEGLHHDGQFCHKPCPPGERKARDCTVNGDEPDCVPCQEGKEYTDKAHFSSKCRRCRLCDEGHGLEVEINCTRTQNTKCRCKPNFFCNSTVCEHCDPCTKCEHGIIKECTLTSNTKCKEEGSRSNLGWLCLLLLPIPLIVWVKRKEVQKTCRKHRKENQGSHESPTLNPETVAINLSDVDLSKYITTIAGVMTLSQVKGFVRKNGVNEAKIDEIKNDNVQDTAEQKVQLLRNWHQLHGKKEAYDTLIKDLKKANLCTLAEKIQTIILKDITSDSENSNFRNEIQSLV

[7] = target: Hu_CRD2-CRD3-CRD4 (human) (UniProt Q07011); assay: flow cytometry, yeast display [Cont.]
Sequence of Hu_CRD2-CRD3-CRD4 (human) (Q07011 46-159 limits assumed): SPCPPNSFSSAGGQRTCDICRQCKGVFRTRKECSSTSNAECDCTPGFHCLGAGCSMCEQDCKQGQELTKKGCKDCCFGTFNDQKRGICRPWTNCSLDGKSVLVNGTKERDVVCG

[8] = target: full-length human CD137 on the cell surface (human) (UniProt Q07011); assay: flow cytometry, yeast display [Cont.]
Hu_CRD2 (human) = Hu_CRD2 (human) (UniProt Q07011); assay: flow cytometry, yeast display [Cont.]
Sequence of Hu_CRD2 (human) (Q07011 46-86 limits assumed): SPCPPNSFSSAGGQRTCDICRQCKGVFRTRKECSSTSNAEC

[9] = target: full-length mouse CD137 on the cell surface (mouse) (UniProt P20334); assay: flow cytometry, yeast display [Cont.]
Sequence of full-length mouse CD137 on the cell surface (mouse) (P20334 24-178 limits assumed): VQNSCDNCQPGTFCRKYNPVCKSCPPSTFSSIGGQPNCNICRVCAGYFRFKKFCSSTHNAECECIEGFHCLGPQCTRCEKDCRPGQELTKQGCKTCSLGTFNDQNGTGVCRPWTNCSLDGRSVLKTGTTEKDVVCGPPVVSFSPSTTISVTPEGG

Hu_CRD3-CRD4 (human) = Hu_CRD3-CRD4 (human) (UniProt Q07011); assay: flow cytometry, yeast display [Cont.]
Sequence of Hu_CRD3-CRD4 (human) (Q07011 87-159 limits assumed): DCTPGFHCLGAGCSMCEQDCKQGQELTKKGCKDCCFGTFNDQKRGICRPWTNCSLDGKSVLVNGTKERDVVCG

Hu_CRD4 (human) = Hu_CRD4 (human) (UniProt Q07011); assay: flow cytometry, yeast display [Cont.]
Sequence of Hu_CRD4 (human) (Q07011 119-159 limits assumed): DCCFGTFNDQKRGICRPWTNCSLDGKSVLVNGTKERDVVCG

[10] = target: Hu_CRD1-CRD2-CRD3 (human) (UniProt Q07011); assay: flow cytometry, yeast display [Cont.]
Sequence of Hu_CRD1-CRD2-CRD3 (human) (Q07011 24-118 limits assumed): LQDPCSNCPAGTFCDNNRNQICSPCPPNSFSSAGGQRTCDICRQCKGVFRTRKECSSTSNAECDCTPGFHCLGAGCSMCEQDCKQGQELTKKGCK

Hu_CRD1-CRD2 (human) = Hu_CRD1-CRD2 (human) (UniProt Q07011); assay: flow cytometry, yeast display [Cont.]
Sequence of Hu_CRD1-CRD2 (human) (Q07011 24-86 limits assumed): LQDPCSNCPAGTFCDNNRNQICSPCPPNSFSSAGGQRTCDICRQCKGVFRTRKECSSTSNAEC

Hu_CRD2-CRD3 (human) = Hu_CRD2-CRD3 (human) (UniProt Q07011); assay: flow cytometry, yeast display [Cont.]
Sequence of Hu_CRD2-CRD3 (human) (Q07011 46-118 limits assumed): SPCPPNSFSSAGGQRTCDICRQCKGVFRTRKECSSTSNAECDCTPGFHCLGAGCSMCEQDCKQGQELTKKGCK

[11] = target: purified C1q component of the human complement (human) (UniProt P02745); assay: ELISA, direct binding of antibody to purified human complement C1q, A450
Sequence of purified C1q component of the human complement (human) (P02745 23-245, chain 1 of 3): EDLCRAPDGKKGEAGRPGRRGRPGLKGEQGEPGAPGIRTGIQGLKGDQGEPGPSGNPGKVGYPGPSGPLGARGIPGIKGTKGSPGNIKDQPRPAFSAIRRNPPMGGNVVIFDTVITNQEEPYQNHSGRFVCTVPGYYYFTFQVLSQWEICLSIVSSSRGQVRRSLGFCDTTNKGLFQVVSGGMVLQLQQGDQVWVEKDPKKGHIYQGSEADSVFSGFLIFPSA
Sequence of purified C1q component of the human complement (human) (P02746 28-253, chain 2 of 3, further chain): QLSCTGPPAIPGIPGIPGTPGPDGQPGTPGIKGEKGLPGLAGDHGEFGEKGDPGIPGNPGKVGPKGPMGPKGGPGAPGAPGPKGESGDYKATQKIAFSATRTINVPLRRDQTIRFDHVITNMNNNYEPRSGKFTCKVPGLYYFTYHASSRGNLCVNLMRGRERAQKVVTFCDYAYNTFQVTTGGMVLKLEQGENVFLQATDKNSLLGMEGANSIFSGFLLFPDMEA
Sequence of purified C1q component of the human complement (human) (P02747 29-245, chain 3 of 3, further chain): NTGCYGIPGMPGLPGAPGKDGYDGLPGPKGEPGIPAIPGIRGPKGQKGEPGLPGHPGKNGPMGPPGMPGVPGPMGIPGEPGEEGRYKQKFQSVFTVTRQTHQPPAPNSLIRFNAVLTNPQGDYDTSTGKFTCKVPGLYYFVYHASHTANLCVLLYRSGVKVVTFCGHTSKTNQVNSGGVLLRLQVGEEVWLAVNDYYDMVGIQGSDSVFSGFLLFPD

Sequence of full-length human CD137 on the cell surface (human) (Q07011 18-255): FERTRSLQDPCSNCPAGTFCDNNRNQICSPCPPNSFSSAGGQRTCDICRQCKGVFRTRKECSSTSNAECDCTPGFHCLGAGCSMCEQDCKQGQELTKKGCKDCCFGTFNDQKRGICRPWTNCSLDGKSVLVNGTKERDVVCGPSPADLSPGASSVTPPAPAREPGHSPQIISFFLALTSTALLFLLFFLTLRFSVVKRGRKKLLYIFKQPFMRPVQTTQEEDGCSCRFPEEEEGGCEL
Sequence of full-length monkey CD137 on the cell surface (cynomolgus monkey) (Q07011 other isoform, or with tags, fused parts or gaps): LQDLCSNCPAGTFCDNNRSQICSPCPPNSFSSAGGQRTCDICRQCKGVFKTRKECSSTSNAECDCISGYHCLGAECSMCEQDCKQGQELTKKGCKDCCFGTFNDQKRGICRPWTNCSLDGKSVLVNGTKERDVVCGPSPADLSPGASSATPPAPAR
Sequence of OX40 overexpressed on HEK293F cells (P43489 29-277 limits assumed): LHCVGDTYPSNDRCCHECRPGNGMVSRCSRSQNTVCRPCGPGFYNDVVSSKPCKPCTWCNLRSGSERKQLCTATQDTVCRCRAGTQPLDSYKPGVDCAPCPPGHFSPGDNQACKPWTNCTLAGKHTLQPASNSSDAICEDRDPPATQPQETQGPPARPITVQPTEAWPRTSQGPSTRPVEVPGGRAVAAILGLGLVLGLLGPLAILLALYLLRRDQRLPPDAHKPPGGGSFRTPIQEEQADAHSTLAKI

Isotype (antibody)
% of cells positive for antibody binding [1]: 1.5% | Mean [2]: 5300 | Mean [3]: 7360 | Median [4]: 5730 | Mean [5]: 48100 | Mean [6]: 8970 | Mean (CD95): 5140 | % in upper right quadrant [7]: 0.2% | Mean [7]: 15000 | % in upper right quadrant [8]: 0.14% | Mean [8]: 9600 | % in upper right quadrant (Hu_CRD2 (human)): 0.18% | Mean (Hu_CRD2 (human)): 4650 | % in upper right quadrant [9]: 0.18% | Mean [9]: 14800 | % in upper right quadrant (Hu_CRD3-CRD4 (human)): 0.17% | Mean (Hu_CRD3-CRD4 (human)): 6860 | % in upper right quadrant (Hu_CRD4 (human)): 0.23% | Mean (Hu_CRD4 (human)): 11000 | % in upper right quadrant [10]: 0.1% | Mean [10]: 3680 | % in upper right quadrant (Hu_CRD1-CRD2 (human)): 0.15% | Mean (Hu_CRD1-CRD2 (human)): 5560 | % in upper right quadrant (Hu_CRD2-CRD3 (human)): 0.14% | Mean (Hu_CRD2-CRD3 (human)): 6280

mouse CD137L (from UniProt P41274 104-309) (ligand)
% in upper right quadrant (Hu_CRD2 (human)): 0.16% | Mean (Hu_CRD2 (human)): 14600

human IgG1 isotype control antibody
EC50 (read off the curve) [11]: 2 nM
